According to patent publication US20230365698A1, “ANTI-IFNAR1 DOSING REGIME FOR SUBCUTANEOUS INJECTION” (published 2023):

What was measured:
[1] = molecular target: T1, subunit 1 of the type I interferon receptor (IFNAR1), in patients (human, UniProt P17181); experiment: cell-based or functional assay
T1 sequence: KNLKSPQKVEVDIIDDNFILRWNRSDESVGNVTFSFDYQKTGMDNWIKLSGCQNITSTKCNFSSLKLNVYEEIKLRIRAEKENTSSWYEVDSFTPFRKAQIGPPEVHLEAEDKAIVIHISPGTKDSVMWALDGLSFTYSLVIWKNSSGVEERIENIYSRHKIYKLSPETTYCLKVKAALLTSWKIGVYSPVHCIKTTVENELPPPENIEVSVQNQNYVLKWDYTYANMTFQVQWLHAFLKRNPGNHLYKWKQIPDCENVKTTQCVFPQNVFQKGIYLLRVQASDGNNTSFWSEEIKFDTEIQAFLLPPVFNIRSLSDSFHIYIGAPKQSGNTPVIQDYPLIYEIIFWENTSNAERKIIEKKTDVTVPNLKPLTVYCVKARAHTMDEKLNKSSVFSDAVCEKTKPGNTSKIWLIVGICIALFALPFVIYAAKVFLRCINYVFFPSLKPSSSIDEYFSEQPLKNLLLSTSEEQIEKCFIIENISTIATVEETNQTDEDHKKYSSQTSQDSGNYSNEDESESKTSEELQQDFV

[2] = molecular target: T1, subunit 1 of the type I interferon …; experiment: cell-based or functional assay; remark: listed apart in the source

B1: Anifrolumab (antibody, V domains shown)
VH: EVQLVQSGAEVKKPGESLKISCKGSGYIFTNYWIAWVRQMPGKGLESMGIIYPGDSDIRYSPSFQGQVTISADKSITTAYLQWSSLKASDTAMYYCARHDIEGFDYWGRGTLVTVSS
VL: EIVLTQSPGTLSLSPGERATLSCRASQSVSSSFFAWYQQKPGQAPRLLIYGASSRATGIPDRLSGSGSGTDFTLTITRLEPEDFAVYYCQQYDSSAITFGQGTRLEIKR
IC50 (nM): anifrolumab concentration required to produce 50% of the maximum inhibition of the 21-IFNGS expression relative to baseline (PK/PD model estimate from TULIP-1 and TULIP-2 data) [1]: 6.56 nM | IC80: approximate anifrolumab concentration required to produce 80% of the maximum inhibition of the 21-IFNGS expression relative to baseline (PK/PD model estimate) [2]: 3.88 µg/mL
